T1: human Protein S (UniProt P07225 42-676)
T1 chain: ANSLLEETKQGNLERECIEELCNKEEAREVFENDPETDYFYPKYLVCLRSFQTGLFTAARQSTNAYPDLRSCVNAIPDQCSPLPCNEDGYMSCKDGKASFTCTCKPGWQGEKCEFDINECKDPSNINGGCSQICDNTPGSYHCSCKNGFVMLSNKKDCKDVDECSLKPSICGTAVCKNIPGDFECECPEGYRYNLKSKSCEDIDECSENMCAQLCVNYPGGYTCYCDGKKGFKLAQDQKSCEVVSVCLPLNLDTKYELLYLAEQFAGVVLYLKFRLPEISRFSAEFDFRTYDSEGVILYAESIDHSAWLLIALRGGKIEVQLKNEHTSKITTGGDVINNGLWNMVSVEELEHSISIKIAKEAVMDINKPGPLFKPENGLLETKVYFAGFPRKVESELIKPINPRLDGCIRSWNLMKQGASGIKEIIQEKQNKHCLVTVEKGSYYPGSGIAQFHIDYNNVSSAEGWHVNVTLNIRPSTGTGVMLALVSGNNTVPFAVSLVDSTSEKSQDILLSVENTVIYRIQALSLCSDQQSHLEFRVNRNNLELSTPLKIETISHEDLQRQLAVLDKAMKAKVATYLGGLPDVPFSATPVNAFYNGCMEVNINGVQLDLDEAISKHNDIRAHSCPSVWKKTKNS


Biological target: T1, human Protein S
Assay: LANCE competition
Method in brief: (§1)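 A homogeneous time-resolved FRET (LANCE) competition format paired europium-labelled Protein S and ULight-labelled streptavidin with a biotinylated tracer peptide, against which unlabelled test peptide was titrated three-fold. With final concentrations of 10 nM Protein S, 100 nM streptavidin and 300 nM tracer in 50 µl, or 2 nM Protein S and 60 nM tracer when a Tecan F500 was used, samples stood 1 hour at room temperature. Emission was read at 665 nm with excitation at 340 nm. Non-linear regression of these signals gave the IC50.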
Ac-IIMVSAGWYDYNTDTYYEFE-NH2 [JBS3301] gave an IC50 of 1.3 nM. Ac-ESYVSAGWYDYNTDTYYEFY-NH2 [JBS3262] gave an IC50 of 1 nM. Ac-EVEVSAGWYDYNDDKYYEFG-NH2 [JBS3276] gave an IC50 of 3 nM. Binder Ac-EAMVSAGWYDYMNDTYYEFE-NH2 [JBS3293] has an IC50 of 2.1 nM. With Ac-KDKVSAGWYDYNSDTYYEFT-NH2 [JBS3300] the IC50 was 3.2 nM. Ac-EYTASAGWYDYNSDTYYEFE-NH2 [JBS3255] was tested, and the IC50 was 9.5 nM. Binder Ac-KVEVSAGWYDYNKDVYYEFE-NH2 [JBS3299] has an IC50 of 2 nM. Work on EYYVSAGWYDYNTDTYYEFEC [JBS3320] yielded an IC50 of 0.5 nM. Binder Ac-EYIVEAGWYDINEDKYLEFY-NH2 [JBS3264] has an IC50 of 2 nM. Ac-EYSVSAGWYDYYNDTYYEFY-NH2 [JBS3265] gave an IC50 of 1.4 nM. Ac-FEYVIAGWYDYNTDTYHEFN-NH2 [JBS3272] was tested, and the IC50 was 1.4 nM. For Ac-FEYVSAGWYDYNTDTYYEFY-NH2 [JBS3271], the IC50 was 1.9 nM. Ac-NMEVSAGWYDYNSDTYHEFW-NH2 [JBS3290] showed an IC50 of 3.4 nM. Ac-EVYVSAGWYNYNEDAYYEFW-NH2 [JBS3287] was tested, and the IC50 was 1.2 nM. Binder Ac-YVTVSAGWYDYNKDEYFEFY-NH2 [JBS3309] has an IC50 of 1.1 nM. Ac-EYTISAGWYDYNTDMYYEFV-NH2 [JBS3254] gave an IC50 of 1.6 nM. Work on Ac-DVYVSAGWYDYNEDTYYEFS-NH2 [JBS3288] yielded an IC50 of 3.1 nM. Work on Ac-NMYVSAGWYNYNEDTYEEFY-NH2 [JBS3289] yielded an IC50 of 2.5 nM. Work on Ac-EVHVSAGWYDYNNDTYYEFG-NH2 [JBS3275] yielded an IC50 of 1.2 nM. Binder Ac-ESIVSAGWYDYNTDEYYEFF-NH2 [JBS3267] has an IC50 of 1.7 nM. Ac-YGIVSAGWYEYNTDIYEEFW-NH2 [JBS3257] was tested, and the IC50 was 14.8 nM. For Ac-EFIVSAGWYDYNKDTYIEFE-NH2 [JBS3292], the IC50 was 2.7 nM. With Ac-FGIVSAGWYDYNTDTYYEPY-NH2 [JBS3269] the IC50 was 56.9 nM. Work on Ac-VFYVSAGWYDYNDDKYYEFW-NH2 [JBS3304] yielded an IC50 of 1.5 nM. In the case of Ac-EATVSIGWYDYNKDEYYEFY-NH2 [JBS3291], the IC50 is reported as 8 nM. Work on Ac-KMHVSIGWYDYNNDIYYEFY-NH2 [JBS3298] yielded an IC50 of 1 nM. Ac-EVEVSAGWYEYNTDTYYEFW-NH2 [JBS3282] was tested, and the IC50 was 4.1 nM. With Ac-YGIVEAGWYEYNTDEYIEFW-NH2 [JBS3256] the IC50 was 1.7 nM. For Ac-RYIVSAGWYDIIQDTYFEFY-NH2 [JBS3285], the IC50 was 1.2 nM. Binder Ac-ESIVSAGWYDYNTDTYYEFT-NH2 [JBS3268] has an IC50 of 1.5 nM. Ac-EYSVSAGWYDYNTDVYYEFE-NH2 [JBS3266] was tested, and the IC50 was 1.6 nM. With Ac-FGIISAGWYDYNEDAYSEFY-NH2 [JBS3270] the IC50 was 1.2 nM. For Ac-EHIVSAGWYDYNMDEYYEFW-NH2 [JBS3294], the IC50 was 6.3 nM. Work on Ac-VIEVSAGWYDYNEDKYYEFW-NH2 [JBS3303] yielded an IC50 of 1.7 nM. Ac-YNEVSAGWYDMNEDTYYEFY-NH2 [JBS3280] showed an IC50 of 5.3 nM. Binder Ac-EYEVSAGWYDYNNDVYNEFY-NH2 [JBS3277] has an IC50 of 3.4 nM. Binder Ac-WYEVEIGWYDYNTDTYQEFY-NH2 [JBS3308] has an IC50 of 1.4 nM. Ac-ITHVTAGWYDYNTDTYYEFI-NH2 [JBS3302] showed an IC50 of 3.5 nM. In the case of Ac-AYIVEAGWYDYNTDTYEEFW-NH2 [JBS3305], the IC50 is reported as 3.7 nM. Binder Ac-EYFVSAGWYDYNADIYYEFD-NH2 [JBS3278] has an IC50 of 1.1 nM. Work on Ac-EGYVSAGWYDYNKDIYLEFE-NH2 [JBS3259] yielded an IC50 of 3.7 nM. With Ac-YNIVSAGWYDYNKDTYYEFF-NH2 [JBS3279] the IC50 was 1.5 nM. Binder Ac-NYIVSAGWYDYNNDEYIEFY-NH2 [JBS3286] has an IC50 of 1.3 nM. Binder Ac-ESYVSAGWYDYNIDAYYEFY-NH2 [JBS3261] has an IC50 of 2 nM. Ac-EYTVSAGWYNYNADEYYEFE-NH2 [JBS3253] gave an IC50 of 2.8 nM. For Ac-HYNVSAGWYDYNNDEYFEFY-NH2 [JBS3307], the IC50 was 1.4 nM.

Biological target: T1, human Protein S
Assay: LANCE competition
Remark: another data set of the same source
Method in brief: as §1
Work on Ac-EEYVSAGWYDMNRDTYTEFY-NH2 [JBS3252] yielded an IC50 of 12.8 nM. In the case of Ac-EYYVSAGWYDYNSDTYQEFI-NH2 [JBS3244], the IC50 is reported as 4.7 nM. Binder Ac-EYYVSAGWYDYNTDTYYEFD-NH2 [JBS3231] has an IC50 of 1.5 nM. Ac-EYYVSAGWYDYNYDVYTEFE-NH2 [JBS3248] showed an IC50 of 3.7 nM. Binder Ac-EYYVSAGWYDYNNDTYYEFE-NH2 [JBS3233] has an IC50 of 0.9 nM. Ac-EYTVSAGWYDYNNDIYFEFY-NH2 [JBS3219] gave an IC50 of 1.1 nM.

— US20150246947A1 (BAXALTA, published 2015)
